According to patent publication US20240376170A1 (BRIGHT PEAK THERAPEUTICS, published 2024):
Bridges are numbered along the chain shown (N, C = ends). Primed or numbered codes have the meaning given here. Side-chain parts run from the residue outwards. [ ]: non-standard residue; d: D form. Ygp(4) = Tyr with amino-capped PEG8 (O-(8x polyethylene glycol-amino)-tyrosine); Yn3(4) = Tyr with azide-capped PEG9 (O-(9x polyethylene glycol-azido)-tyrosine); Ygp(8) = Tyr, amino-capped PEG8 (O-(8x polyethylene glycol-amino)-tyrosine); Yn3(8) = Tyr, azide-capped PEG9 (O-(9x polyethylene glycol-azido)-tyrosine); Ygp = O-(8x polyethylene glycol-amino)-tyrosine (Tyr, amino-capped PEG8); Yn3 = O-(9x polyethylene glycol-azido)-tyrosine (Tyr, azide-capped PEG9); Ygp″ = O-(8x polyethylene glycol-amino)-tyrosine; Yn3″ = O-(9x polyethylene glycol-azido)-tyrosine; PEG9′ = 9x polyethylene glycol; hSer = N[C@@H](CCO)C(=O)O; Nle = CCCC[C@H](N)C(=O)O

T1: IL-2 receptor βγ complex (human, UniProt P14784 27-551; P31785 23-369)
T1 sequence (looked up) 1: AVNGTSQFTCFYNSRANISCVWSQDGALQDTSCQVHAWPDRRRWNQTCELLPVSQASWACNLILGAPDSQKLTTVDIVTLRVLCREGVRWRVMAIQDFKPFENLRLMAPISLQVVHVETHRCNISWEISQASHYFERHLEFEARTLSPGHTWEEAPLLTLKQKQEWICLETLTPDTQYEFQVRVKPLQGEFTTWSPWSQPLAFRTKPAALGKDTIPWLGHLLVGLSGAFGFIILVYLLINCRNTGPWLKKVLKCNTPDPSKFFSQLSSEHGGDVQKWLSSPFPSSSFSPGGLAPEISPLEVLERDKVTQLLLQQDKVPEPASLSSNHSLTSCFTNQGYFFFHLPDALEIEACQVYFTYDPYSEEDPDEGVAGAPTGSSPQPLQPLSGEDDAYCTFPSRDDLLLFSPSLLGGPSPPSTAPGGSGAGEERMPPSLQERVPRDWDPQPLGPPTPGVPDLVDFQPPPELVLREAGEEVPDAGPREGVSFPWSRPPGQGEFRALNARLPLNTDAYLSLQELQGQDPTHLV
T1 sequence (looked up) 2: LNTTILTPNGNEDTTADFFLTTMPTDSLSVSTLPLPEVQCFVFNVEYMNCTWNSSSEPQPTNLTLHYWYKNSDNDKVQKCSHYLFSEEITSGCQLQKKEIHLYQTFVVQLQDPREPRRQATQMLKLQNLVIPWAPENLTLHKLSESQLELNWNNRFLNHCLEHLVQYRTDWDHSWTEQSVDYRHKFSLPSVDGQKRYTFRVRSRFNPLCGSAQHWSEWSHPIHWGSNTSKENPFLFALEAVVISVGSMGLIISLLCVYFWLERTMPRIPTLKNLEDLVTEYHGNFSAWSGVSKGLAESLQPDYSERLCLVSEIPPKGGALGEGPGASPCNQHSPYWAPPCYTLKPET

T2: IL-2Rβγ on HEK-Blue IL-2Rβγ reporter cells (InvivoGen) (UniProt P14784 27-551; P31785 23-369, limits assumed)
T2 sequence (looked up) 1: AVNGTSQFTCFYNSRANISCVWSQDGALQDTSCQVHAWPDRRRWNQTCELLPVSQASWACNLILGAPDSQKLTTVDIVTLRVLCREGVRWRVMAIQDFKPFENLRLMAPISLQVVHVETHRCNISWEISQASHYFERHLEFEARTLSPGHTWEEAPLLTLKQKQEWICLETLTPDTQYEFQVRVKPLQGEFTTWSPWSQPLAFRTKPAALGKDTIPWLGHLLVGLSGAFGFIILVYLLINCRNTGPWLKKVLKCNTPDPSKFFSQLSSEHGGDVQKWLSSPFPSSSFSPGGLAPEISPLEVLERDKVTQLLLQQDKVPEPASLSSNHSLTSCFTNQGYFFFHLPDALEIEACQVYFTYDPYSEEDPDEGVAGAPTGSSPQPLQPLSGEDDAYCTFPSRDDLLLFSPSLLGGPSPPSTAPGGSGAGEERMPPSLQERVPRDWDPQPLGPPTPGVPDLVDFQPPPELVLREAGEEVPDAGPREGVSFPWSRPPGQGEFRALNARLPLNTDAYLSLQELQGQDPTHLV
T2 sequence (looked up) 2: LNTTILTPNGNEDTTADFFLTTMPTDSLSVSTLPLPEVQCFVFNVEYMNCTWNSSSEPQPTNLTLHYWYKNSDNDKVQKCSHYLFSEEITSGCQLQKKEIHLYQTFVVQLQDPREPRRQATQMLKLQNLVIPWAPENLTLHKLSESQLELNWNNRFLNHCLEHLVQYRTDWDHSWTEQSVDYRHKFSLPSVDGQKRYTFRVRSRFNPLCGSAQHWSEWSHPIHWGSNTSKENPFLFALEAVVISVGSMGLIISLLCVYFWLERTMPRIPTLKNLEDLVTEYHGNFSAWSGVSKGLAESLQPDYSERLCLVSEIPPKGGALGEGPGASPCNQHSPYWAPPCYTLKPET

B1: CMP-319 (ligand)
chain: RGRRVANLVGAPTSSSTKKTQLQLEHLLLDLQEILNGINNYKNPKLTR[Nle]L[hSer][Yn3]KF[Ygp][Nle]PKKATELKHLQCLEEELKPLEEVL[hSer]LAQSKNFHLRPRDLISNINVIVLELKGSETTF[hSer]CEYADETATIVEFLNRWITFSQSIISTLT
modifications: lactam N-33; ends not checked
B2: CMP-320 (ligand)
chain: SGRVAPQPLVDAPTSSSTKKTQLQLEHLLLDLQEILNGINNYKNPKLTR[Nle]L[hSer][Yn3(8)]KF[Ygp(8)][Nle]PKKATELKHLQCLEEELKPLEEVL[hSer]LAQSKNFHLRPRDLISNINVIVLELKGSETTF[hSer]CEYADETATIVEFLNRWITFSQSIISTLT
modifications: lactam N-34
B3: CMP-321 (ligand)
chain: SGRVQPLVDAPTSSSTKKTQLQLEHLLLDLQEILNGINNYKNPKLTR[Nle]L[hSer][Yn3(8)]KF[Ygp(8)][Nle]PKKATELKHLQCLEEELKPLEEVL[hSer]LAQSKNFHLRPRDLISNINVIVLELKGSETTF[hSer]CEYADETATIVEFLNRWITFSQSIISTLT
modifications: lactam N-32
B4: CMP-321, MMP2 cleaved molecule (ligand)
chain: SGRVQPLVDAPTSSSTKKTQLQLEHLLLDLQEILNGINNYKNPKLTR[Nle]L[hSer][Yn3(8)]KF[Ygp(8)][Nle]PKKATELKHLQCLEEELKPLEEVL[hSer]LAQSKNFHLRPRDLISNINVIVLELKGSETTF[hSer]CEYADETATIVEFLNRWITFSQSIISTLT
modifications: lactam N-32; also: MMP2 cleaved, cleavage site and product not given here
B5: CMP-323 (ligand)
chain: LVGAPTSSSTKKTQLQLEHLLLDLQE([Arg-Gly-Arg])ILNGINNYKNPKLTR[Nle]L[hSer][Yn3″]KF[Ygp″][Nle]PKKATELKHLQCLEEELKPLEEVL[hSer]LAQSKNFHLRPRDLISNINVIVLELKGSETTF[hSer]CEYADETATIVEFLNRWITFSQSIISTLT
modifications: not fully specified; ends and bridges not checked
B6: CMP-324 (ligand)
chain: LVGAPTSSSTKKTQLQLEHLLLDLQEILNGINNYKNPKLTR[Nle]L[hSer][Yn3″]KF[Ygp″][Nle]PKKATELKHLQCLEEELKPLEEVL[hSer]LAQSKNFHLRPRDLISNINVIVLELKGSETTF[hSer]CEYADETATIVEFLNRWITFSQSIISTLT
modifications: not fully specified (residue 26); ends and bridges not checked; also: Glu26 side chain attached to another sequence (short peptide)
B7: CMP-325 (ligand)
chain: RVANLVGAPTSSSTKKTQLQLEHLLLDLQE([Arg-Gly-Arg])ILNGINNYKNPKLTR[Nle]L[hSer][Yn3″]KF[Ygp″][Nle]PKKATELKHLQCLEEELKPLEEVL[hSer]LAQSKNFHLRPRDLISNINVIVLELKGSETTF[hSer]CEYADETATIVEFLNRWITFSQSIISTLT
modifications: not fully specified; ends and bridges not checked
B8: CMP-301 (ligand)
chain: GPLGLAG[PEG9′]APTSSSTKKTQLQLEHLLLDLQEILNGINNYKNPKLTR[Nle]L[hSer][Yn3″]KF[Ygp″][Nle]PKKATELKHLQCLEEELKPLEEVL[hSer]LAQSKNFHLRPRDLISNINVIVLELKGSETTF[hSer]CEYADETATIVEFLNRWITFSQSIISTLT
modifications: lactam N-31; ends not checked
B9: CMP-301, MMP2 cleaved (ligand)
chain: APTSSSTKKTQLQLEHLLLDLQEILNGINNYKNPKLTR[Nle]L[hSer][Yn3″]KF[Ygp″][Nle]PKKATELKHLQCLEEELKPLEEVL[hSer]LAQSKNFHLRPRDLISNINVIVLELKGSETTF[hSer]CEYADETATIVEFLNRWITFSQSIISTLT
modifications: ends and bridges not checked; also: MMP2 cleaved, ring opened, cut site and remnants not given here
B10: CMP-302 (ligand)
chain: GPLGLAGAPTSSSTKKTQLQLEHLLLDLQEILNGINNYKNPKLTR[Nle]L[hSer][Yn3″]KF[Ygp″][Nle]PKKATELKHLQCLEEELKPLEEVL[hSer]LAQSKNFHLRPRDLISNINVIVLELKGSETTF[hSer]CEYADETATIVEFLNRWITFSQSIISTLT
modifications: lactam N-30; ends not checked
B11: CMP-302, MMP2 cleaved (ligand)
chain: GPLGLAGAPTSSSTKKTQLQLEHLLLDLQEILNGINNYKNPKLTR[Nle]L[hSer][Yn3″]KF[Ygp″][Nle]PKKATELKHLQCLEEELKPLEEVL[hSer]LAQSKNFHLRPRDLISNINVIVLELKGSETTF[hSer]CEYADETATIVEFLNRWITFSQSIISTLT
modifications: ends and bridges not checked; also: MMP2 cleaved, ring opened, cut site and remnants not given here
B12: CMP-303 (ligand)
chain: PLGLAGAPTSSSTKKTQLQLEHLLLDLQEILNGINNYKNPKLTR[Nle]L[hSer][Yn3″]KF[Ygp″][Nle]PKKATELKHLQCLEEELKPLEEVL[hSer]LAQSKNFHLRPRDLISNINVIVLELKGSETTF[hSer]CEYADETATIVEFLNRWITFSQSIISTLT
modifications: bridge N-29; not fully specified (N-terminus, bridges); ends not checked
B13: CMP-303, MMP2 cleaved (ligand)
chain: PLGLAGAPTSSSTKKTQLQLEHLLLDLQEILNGINNYKNPKLTR[Nle]L[hSer][Yn3″]KF[Ygp″][Nle]PKKATELKHLQCLEEELKPLEEVL[hSer]LAQSKNFHLRPRDLISNINVIVLELKGSETTF[hSer]CEYADETATIVEFLNRWITFSQSIISTLT
modifications: ends and bridges not checked; also: MMP2 cleaved, ring opened, cut site and remnants not given here
B14: CMP-304 (ligand)
chain: PLGLAGAPTSSSTKKTQLQLEHLLLDLQEILNGINNYKNPKLTR[Nle]L[hSer][Yn3(4)]KF[Ygp(4)][Nle]PKKATELKHLQCLEEELKPLEEVL[hSer]LAQSKNFHLRPRDLISNINVIVLELKGSETTF[hSer]CEYADETATIVEFLNRWITFSQSIISTLT
modifications: bridge N-29; not fully specified (N-terminus, bridges); ends not checked

target: T1, IL-2 receptor βγ complex; test: cell-based or functional assay

| Average EC50, pSTAT5 Assay in NK cells | Binder |
| --- | --- |
| 7.72 nM | B1 |
| 13.2 nM | B2 |
| 55.1 nM | B3 |
| 2.94 nM | B4 |
| 0.13 nM | B5 |
| 0.38 nM | B6 |
| 0.18 nM | B7 |

target: T2, IL-2Rβγ on HEK-Blue IL-2Rβγ reporter …; test: cell-based or functional assay

| Average EC50, HEK-Blue IL-2R (CD122+, CD132+) Reporter Assay, intact molecule | Average EC50, HEK-Blue IL-2R (CD122+, CD132+) Reporter Assay, MMP2 cleaved molecule | Binder |
| --- | --- | --- |
| 0.591 nM |  | B8 |
|  | 7.26 pM | B9 |
| 0.436 nM |  | B10 |
|  | 6.46 pM | B11 |
| 0.521 nM |  | B12 |
|  | 21.8 pM | B13 |
| 0.34 nM |  | B14 |
